{"source": "patent US12214008B2", "about": "“Protein interfaces” (SyntheX, Inc., priority 2016, dated 2025)", "assay_type_in_all_cases": "binding", "key": {"[1]": {"tested_on": "C.albicans Rad51", "test": "Y2H assay RAD51/SEQ ID NO.: 5 pair", "design": "key: cells having the interaction would survive (+); cells not having the interaction would die (−) on selective media (−ADE, −HIS)", "procedure": "(§1) RAD51-binding peptides were tested for ability to bind RAD51 of several different species using a “conventional” Y2H assay, where interaction between the two-hybrid pair drove expression of ADE2 and HIS genes."}, "[2]": {"biological_target": "T1, H.sapiens Rad51 (Homo sapiens, UniProt Q06609)", "T1 construct": "expressed in transfected cells", "T1 sequence (Q06609 1-339)": "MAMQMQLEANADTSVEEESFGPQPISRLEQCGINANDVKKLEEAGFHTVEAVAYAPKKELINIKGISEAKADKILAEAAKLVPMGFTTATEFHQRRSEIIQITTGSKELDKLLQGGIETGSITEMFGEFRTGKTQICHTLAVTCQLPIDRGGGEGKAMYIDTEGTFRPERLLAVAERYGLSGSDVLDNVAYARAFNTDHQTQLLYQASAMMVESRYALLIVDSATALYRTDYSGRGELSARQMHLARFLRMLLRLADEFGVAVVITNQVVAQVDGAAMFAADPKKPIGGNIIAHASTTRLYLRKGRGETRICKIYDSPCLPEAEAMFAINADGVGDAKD", "test": "Y2H assay RAD51/SEQ ID NO.: 5 pair", "design": "key: cells having the interaction would survive (+); cells not having the interaction would die (−) on selective media (−ADE, −HIS)", "procedure": "as §1"}, "[3]": {"biological_target": "T2, Rad51 (A190L; A192L) (Homo sapiens, UniProt Q06609, A190L/A192L)", "T2 construct": "expressed in transfected cells", "T2 sequence (Q06609 1-339 A190L/A192L)": "T1 sequence (Q06609 1-339) with A190L, A192L", "test": "Y2H assay, human RAD51 mutants", "design": "key: (+) denotes a successful interaction between the two Y2H baits; (−) denotes a lack of interaction", "procedure": "(§2) The ability of peptides to bind human RAD51 with various mutations was then tested by Y2H assay. […] While mutations affecting BRCA2 binding had no effect on peptide binding, mutations that affected RAD51-AP1 binding did disrupt peptide binding. As these mutations were at residues 202, 205, and 206, they were consistent with the previous fusion data showing binding somewhere in the 190-218 region, and indicated the peptide SEQ ID NO.: 5 contacts at least residues 202, 205, and 206 of RAD51."}, "[4]": {"biological_target": "T3, Rad51 (F86E; A89E) (Homo sapiens, UniProt Q06609, A89E/F86E)", "T3 construct": "expressed in transfected cells", "T3 sequence (Q06609 1-339 F86E/A89E)": "T1 sequence (Q06609 1-339) with F86E, A89E", "test": "Y2H assay, human RAD51 mutants", "design": "key: (+) denotes a successful interaction between the two Y2H baits; (−) denotes a lack of interaction", "procedure": "as §2"}, "[5]": {"biological_target": "T4, Rad51 (Q202R, Y205D, Q206A) (Homo sapiens, UniProt Q06609, Q202R/Q206A/Y205D)", "T4 construct": "expressed in transfected cells", "T4 sequence (Q06609 1-339 Q202R/Y205D/Q206A)": "T1 sequence (Q06609 1-339) with Q202R, Y205D, Q206A", "test": "Y2H assay, human RAD51 mutants", "design": "key: (+) denotes a successful interaction between the two Y2H baits; (−) denotes a lack of interaction", "procedure": "as §2"}, "[6]": {"biological_target": "T5, Rad51 (S208E; A209D) (Homo sapiens, UniProt Q06609, A209D/S208E)", "T5 construct": "expressed in transfected cells", "T5 sequence (Q06609 1-339 S208E/A209D)": "T1 sequence (Q06609 1-339) with S208E, A209D", "test": "Y2H assay, human RAD51 mutants", "design": "key: (+) denotes a successful interaction between the two Y2H baits; (−) denotes a lack of interaction", "procedure": "as §2"}, "[7]": {"biological_target": "T6, Rad51 (S208L; A209E; M210A) (Homo sapiens, UniProt Q06609, A209E/M210A/S208L)", "T6 construct": "expressed in transfected cells", "T6 sequence (Q06609 1-339 S208L/A209E/M210A)": "T1 sequence (Q06609 1-339) with S208L, A209E, M210A", "test": "Y2H assay, human RAD51 mutants", "design": "key: (+) denotes a successful interaction between the two Y2H baits; (−) denotes a lack of interaction", "procedure": "as §2"}}, "note": "Residue numbers refer to the chain shown, from its start."}
{"sequence": "KRRRRRRRKRLGVRLRVSRML [SEQ ID NO.: 5]", "values": [{"measurement": "Compound 5 Sequence Binding", "setting": "[1]", "result": "+"}, {"measurement": "Compound 5 Sequence Binding", "setting": "[2]", "result": "+"}, {"measurement": "Y2H interaction with SEQ ID NO.: 5", "setting": "[3]", "result": "+"}, {"measurement": "Y2H interaction with SEQ ID NO.: 5", "setting": "[4]", "result": "+"}, {"measurement": "Y2H interaction with SEQ ID NO.: 5", "setting": "[5]", "result": "−"}, {"measurement": "Y2H interaction with SEQ ID NO.: 5", "setting": "[6]", "result": "+"}, {"measurement": "Y2H interaction with SEQ ID NO.: 5", "setting": "[7]", "result": "+"}]}
